Starred links: 1 amine or outer side, 2 acyl side, 3 side chain; linkers in the order of their positions; H or OH if unused. *: point of attachment. pNA = O=[N+]([O-])c1ccc(N*)cc1; Suc = O=C(CCC(=O)[*:2])[*:1]
B1: Suc-Ala-Arg-Pro-Phe-pNA (peptide)
peptide: Suc-ARPF-pNA
SMILES: C[C@H](NC(=O)CCC(=O)O)C(=O)N[C@@H](CCCNC(=N)N)C(=O)N1CCC[C@H]1C(=O)N[C@@H](Cc1ccccc1)C(=O)Nc1ccc([N+](=O)[O-])cc1
B2: Suc-Ala-Lys-Pro-Phe-pNA (peptide)
peptide: Suc-AKPF-pNA
SMILES: C[C@H](NC(=O)CCC(=O)O)C(=O)N[C@@H](CCCCN)C(=O)N1CCC[C@H]1C(=O)N[C@@H](Cc1ccccc1)C(=O)Nc1ccc([N+](=O)[O-])cc1

Target: Parvulin 17 (human) (UniProt Q9Y237)
Sequence (Q9Y237 other isoform, or with tags, fused parts or gaps): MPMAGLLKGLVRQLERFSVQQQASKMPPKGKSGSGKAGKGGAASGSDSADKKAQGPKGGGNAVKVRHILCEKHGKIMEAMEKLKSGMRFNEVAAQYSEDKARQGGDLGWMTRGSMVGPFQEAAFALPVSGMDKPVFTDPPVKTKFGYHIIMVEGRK
Assay: NMR titration; substrate peptides added stepwise to 15N-labelled parvulin (300 μM, up to 3 mM peptide, 1:10); BEST-TROSY-HSQC at 20°C, 50 mM KPi buffer pH 6.7; microscopic (residue-specific) KD fitted with a 1:1 binding model

Row | Binder | microscopic (residue-specific) KD, V116 [mM]
1 | B1 | 17
2 | B2 | 24

Source: publication PMC12314576, “The Actin‐Binding Prolyl‐Isomerase Par17 Sustains Its Substrate Selectivity by Interdomain Allostery” (Proteins, 2025)
